In patent publication US20260102474A1 (published 2026) one finds EC50 and IC50 data, which are given here for 2 molecules.

What is called EC50 is the concentration that produces a half-maximal response. What is called IC50 is the concentration that gives 50% inhibition.

In experiment [1] the target is SARS-COV-2 spike protein on Caco-2 cells infected with the original version of SARS-COV-2 (SARS-COV-2-mNG) (SARS-COV-2, UniProt P0DTC2 14-1273). Kind of experiment: flow.
In experiment [2] the target is SARS-COV-2 full-length trimeric spike protein, parental (SARS-COV-2, UniProt P0DTC2 14-1213). Kind of experiment: competition.

B1: ACE2-M2-FcKO (Fc fusion)
chain: STIEEQAKYFLDYFNVQAEDLFYQSSLASWNYNTNITEENVQNMNNAGDKWSAFLKEQSTYAQRYPLQEIQNLTVKLQLQALQQNGSSVLSEDKSKRLNTILNTMSTIYSTGKVCNPDNPQECLLLEPGLNEIMANSLDYNERLWAWESWRSEVGKQLRPLYEEYVVLKNEMARANHYEDYGDYWRGDYEVNGVDGYDYSRGQLIEDVEHTFEEIKPLYEHLHAYVRAKLMNAYPSYISPIGCLPAHLLGDMWGRFWTNLYSLTVPFGQKPNIDVTDAMVDQAWDAQRIFKEAEKFFVSVGLPNMTQGFWEYSMLTDPGNVQKAVCHPTAWDLGKGDFRILMCTKVTMDDFLTAHREMGRIQYDMAYAAQPFLLRNGANEGFHEAVGEIMSLSAATPKHLKSIGLLSPDFQEDNETEINFLLKQALTIVGTLPFTYMLEKWRWMVFKGEIPKDQWMKKWWEMKREIVGVVEPVPHDETYCDPASLFHVSNDYSFIRYYTRTLYQFQFQEALCQAAKHEGPLHKCDISNSTEAGQKLFNMLRLGKSEPWTLALENVVGAKNMNVRPLLNYFEPLFTWLKDQNKNSFVGWSTDWSPYADQSIKVRISLKSALGDKAYEWNDNEMYLFRSSVAYAMRQYFLKVKNQMILFGEEDVRVANLKPRISFNFFVTAPKNVSDIIPRTEVEKAIRMSRSRINDAFRLNDNSLEFLGIQPTLGPPNQPPVSSGGGGSGGGGSGGGGSEPKSSDKTHTCPPCPAPPVAGPSVFLFPPKPKDTLMISRTPEVTCVVVGVSHEDPEVKFNWYVDGVEVHNAKTKPREEQYNSTYRVVSVLTVLHQDWLNGKEYKCKVSNKQLPSPIEKTISKAKGQPGQPREPQVYTLPPSRDELTKNQVSLTCLVKGFYPSDIAVEWESNGQPENNYKTTPPVLDSDGSFFLYSKLTVDKSRWQQGNVFSCSVMHEALHNHYTQKSLSLSPGK
In turn, B1 displayed an EC50 in experiment [1] of 0.48 µg/mL. Moreover, in experiment [2], the IC50 came out at 9.4 nM.

B2: ACE2-M1-FcKO (Fc fusion)
chain: STIEEQAKYFLDKFNHEAEDLFYQSSLASWNYNTNITEENVQNMNNAGDKWSAFLKEQSTYAQMYPLQEIQNLTVKLQLQALQQNGSSVLSEDKSKRLNTILNTMSTIYSTGKVCNPDNPQECLLLEPGLNEIMANSLDYNERLWAWESWRSEVGKQLRPLYEEYVVLKNEMARANHYEDYGDYWRGDYEVNGVDGYDYSRGQLIEDVEHTFEEIKPLYEHLHAYVRAKLMNAYPSYISPIGCLPAHLLGDMWGRFWTNLYSLTVPFGQKPNIDVTDAMVDQAWDAQRIFKEAEKFFVSVGLPNMTQGFWEYSMLTDPGNVQKAVCHPTAWDLGKGDFRILMCTKVTMDDFLTAHREMGRIQYDMAYAAQPFLLRNGANEGFHEAVGEIMSLSAATPKHLKSIGLLSPDFQEDNETEINFLLKQALTIVGTLPFTYMLEKWRWMVFKGEIPKDQWMKKWWEMKREIVGVVEPVPHDETYCDPASLFHVSNDYSFIRYYTRTLYQFQFQEALCQAAKHEGPLHKCDISNSTEAGQKLFNMLRLGKSEPWTLALENVVGAKNMNVRPLLNYFEPLFTWLKDQNKNSFVGWSTDWSPYADQSIKVRISLKSALGDKAYEWNDNEMYLFRSSVAYAMRQYFLKVKNQMILFGEEDVRVANLKPRISFNFFVTAPKNVSDIIPRTEVEKAIRMSRSRINDAFRLNDNSLEFLGIQPTLGPPNQPPVSSGGGGSGGGGSGGGGSEPKSSDKTHTCPPCPAPPVAGPSVFLFPPKPKDTLMISRTPEVTCVVVGVSHEDPEVKFNWYVDGVEVHNAKTKPREEQYNSTYRVVSVLTVLHQDWLNGKEYKCKVSNKQLPSPIEKTISKAKGQPGQPREPQVYTLPPSRDELTKNQVSLTCLVKGFYPSDIAVEWESNGQPENNYKTTPPVLDSDGSFFLYSKLTVDKSRWQQGNVFSCSVMHEALHNHYTQKSLSLSPGK
On to B2, for which the midpoint of the response in experiment [1], the EC50, lay at 0.29 µg/mL. For the same molecule, the IC50 in experiment [2] was 3.8 nM.
